We go through six sequences from the supplement of paper PMC5998384.

Series [1] deals with HeLa Kyoto. The experiment in a line: solubility in G1/S (NP-40 vs SDS abundance) (log2 ratio); higher = more soluble. To be noted: cell cycle stage: G1/S.
Series [2] relates to HeLa Kyoto. The experiment in a line: melting temperature (median over replicates), in situ; higher = more thermally stable.
The test system of series [3] is HeLa Kyoto. In words: solubility change mitosis vs G1/S (difference of NP-40 vs SDS log2 ratios) (log2 ratio difference); higher = more soluble in mitosis.
Series [4] deals with HeLa Kyoto. The experiment in a line: thermal stability score vs G1/S (z-score of summed log2 fold changes over temperatures); higher = more thermally stable than in G1/S.
Setting [5] is: cell cycle stage: early G1 (4.5 h after nocodazole release).
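Throughout, for melting temperature (median over replicates), in situ: HeLa Kyoto cells synchronized by double thymidine or nocodazole block, proteins quantified by TMT10plex mass spectrometry, three independent biological replicates.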
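Throughout, for solubility change mitosis vs G1/S (difference of NP-40 vs SDS log2 ratios): synchronized HeLa Kyoto cells (double thymidine block for G1/S, nocodazole release for mitosis), protein amounts in NP-40 versus SDS lysates quantified by mass spectrometry, three biological replicates.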
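Throughout, for solubility in G1/S (NP-40 vs SDS abundance): HeLa Kyoto cells arrested at G1/S by double thymidine block, proteins quantified by TMT10plex mass spectrometry in mild NP-40 versus SDS extracts, three biological replicates.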
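Throughout, for thermal stability score vs G1/S (z-score of summed log2 fold changes over temperatures): synchronized HeLa Kyoto cells, proteins quantified by TMT10plex mass spectrometry, three biological replicates, mitosis taken 0.5 h after nocodazole release, G1/S directly after double thymidine block.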

For “MRGPEPGPQPTMEGDVLDTLEALGYKGPLLEEQALTKAAEGGLSSPEFSELCIWLGSQIKSLCNLEESITSAGRDDLESFQLEISGFLKEMACPYSVLISGDIKDRLKKKEDCLKLLLFLSTELQASQILQNKKHKNSQLDKNSEVYQEVQAMFDTLGIPKSTTSDIPHMLNQVESKVKDILSKVQKNHVGKPLLKMDLNSEQAEQLERINDALSCEYECRRRMLMKRLDVTVQSFGWSDRAKVKTDDIARIYQPKRYALSPKTTITMAHLLAAREDLSKIIRTSSGTSREKTACAINKVLMGRVPDRGGRPNEIEPPPPEMPPWQKRQEGGGGRGGWGGGGGGGGRGGGGGGGGRGGWGGGGGGWGGGGGGGGGWGGGGGGGRGGFQGRGDYGGRGGYGGRGGYGGRGYGDPYGGGGGGGGGGGGGGGYRRY [FAM98B]”, the “solubility in G1/S (log2)” value in series [1] is 0.558. Besides, the values for the melting temperature in series [2] (cell cycle stage: G1/S) and in series [2] (cell cycle stage: mitosis) were 50.3 °C and 51.5 °C, respectively. For the same sequence, the “solubility change mitosis (log2)” value in series [3] came to 0.0481. The thermal stability score in series [4] (setting [5]) was -0.356; in series [4] (cell cycle stage: mitosis), 0.627.
For the sequence “MRKFAYCKVVLATSLIWVLLDMFLLLYFSECNKCDEKKERGLPAGDVLEPVQKPHEGPGEMGKPVVIPKEDQEKMKEMFKINQFNLMASEMIALNRSLPDVRLEGCKTKVYPDNLPTTSVVIVFHNEAWSTLLRTVHSVINRSPRHMIEEIVLVDDASERDFLKRPLESYVKKLKVPVHVIRMEQRSGLIRARLKGAAVSKGQVITFLDAHCECTVGWLEPLLARIKHDRRTVVCPIIDVISDDTFEYMAGSDMTYGGFNWKLNFRWYPVPQREMDRRKGDRTLPVRTPTMAGGLFSIDRDYFQEIGTYDAGMDIWGGENLEISFRIWQCGGTLEIVTCSHVGHVFRKATPYTFPGGTGQIINKNNRRLAEVWMDEFKNFFYIISPGVTKVDYGDISSRVGLRHKLQCKPFSWYLENIYPDSQIPRHYFSLGEIRNVETNQCLDNMARKENEKVGIFNCHGMGGNQVFSYTANKEIRTDDLCLDVSKLNGPVTMLKCHHLKGNQLWEYDPVKLTLQHVNSNQCLDKATEEDSQVPSIRDCNGSRSQQWLLRNVTLPEIF [GALNT1]”, the “solubility in G1/S (log2)” value in series [1] is -0.204. Further, the melting temperature in series [2] (cell cycle stage: G1/S) stood at 53.1 °C; in series [2] (cell cycle stage: mitosis), 52 °C. Also, in series [3], the “solubility change mitosis (log2)” value was -0.0904. Also, the thermal stability score came out at 3.31 in series [4] (setting [5]) and 5 in series [4] (cell cycle stage: mitosis).
Turning to “MRKMLAAVSRVLSGASQKPASRVLVASRNFANDATFEIKKCDLHRLEEGPPVTTVLTREDGLKYYRMMQTVRRMELKADQLYKQKIIRGFCHLCDGQEACCVGLEAGINPTDHLITAYRAHGFTFTRGLSVREILAELTGRKGGCAKGKGGSMHMYAKNFYGGNGIVGAQVPLGAGIALACKYNGKDEVCLTLYGDGAANQGQIFEAYNMAALWKLPCIFICENNRYGMGTSVERAAASTDYYKRGDFIPGLRVDGMDILCVREATRFAAAYCRSGKGPILMELQTYRYHGHSMSDPGVSYRTREEIQEVRSKSDPIMLLKDRMVNSNLASVEELKEIDVEVRKEIEDAAQFATADPEPPLEELGYHIYSSDPPFEVRGANQWIKFKSVS [PDHA1]”, the “solubility in G1/S (log2)” value in series [1] worked out at 0.149. In addition, the results for the melting temperature in series [2] (cell cycle stage: G1/S) and in series [2] (cell cycle stage: mitosis) were 52.1 °C and 51.5 °C, respectively. In addition, in series [3], the “solubility change mitosis (log2)” value is -0.122. In addition, the thermal stability score in series [4] (setting [5]) was -1.47; in series [4] (cell cycle stage: mitosis), -2.37.
Turning to “MRLHLLLLLALCGAGTTAAELSYSLRGNWSICNGNGSLELPGAVPGCVHSALFQQGLIQDSYYRFNDLNYRWVSLDNWTYSKEFKIPFEISKWQKVNLILEGVDTVSKILFNEVTIGETDNMFNRYSFDITNVVRDVNSIELRFQSAVLYAAQQSKAHTRYQVPPDCPPLVQKGECHVNFVRKEQCSFSWDWGPSFPTQGIWKDVRIEAYNICHLNYFTFSPIYDKSAQEWNLEIESTFDVVSSKPVGGQVIVAIPKLQTQQTYSIELQPGKRIVELFVNISKNITVETWWPHGHGNQTGYNMTVLFELDGGLNIEKSAKVYFRTVELIEEPIKGSPGLSFYFKINGFPIFLKGSNWIPADSFQDRVTSELLRLLLQSVVDANMNTLRVWGGGIYEQDEFYELCDELGIMVWQDFMFACALYPTDQGFLDSVTAEVAYQIKRLKSHPSIIIWSGNNENEEALMMNWYHISFTDRPIYIKDYVTLYVKNIRELVLAGDKSRPFITSSPTNGAETVAEAWVSQNPNSNYFGDVHFYDYISDCWNWKVFPKARFASEYGYQSWPSFSTLEKVSSTEDWSFNSKFSLHRQHHEGGNKQMLYQAGLHFKLPQSTDPLRTFKDTIYLTQVMQAQCVKTETEFYRRSRSEIVDQQGHTMGALYWQLNDIWQAPSWASLEYGGKWKMLHYFAQNFFAPLLPVGFENENTFYIYGVSDLHSDYSMTLSVRVHTWSSLEPVCSRVTERFVMKGGEAVCLYEEPVSELLRRCGNCTRESCVVSFYLSADHELLSPTNYHFLSSPKEAVGLCKAQITAIISQQGDIFVFDLETSAVAPFVWLDVGSIPGRFSDNGFLMTEKTRTILFYPWEPTSKNELEQSFHVTSLTDIY [MANBA]”, in series [1], the “solubility in G1/S (log2)” value is -0.0999. The melting temperature in series [2] (cell cycle stage: G1/S) amounted to 55.6 °C; in series [2] (cell cycle stage: mitosis), 56 °C. In series [3], the “solubility change mitosis (log2)” value is -0.0887. Further, the thermal stability score in series [4] (setting [5]) was -1.93; in series [4] (cell cycle stage: mitosis), -0.28.
“MRLKIGFILRSLLVVGSFLGLVVLWSSLTPRPDDPSPLSRMREDRDVNDPMPNRGGNGLAPGEDRFKPVVPWPHVEGVEVDLESIRRINKAKNEQEHHAGGDSQKDIMQRQYLTFKPQTFTYHDPVLRPGILGNFEPKEPEPPGVVGGPGEKAKPLVLGPEFKQAIQASIKEFGFNMVASDMISLDRSVNDLRQEECKYWHYDENLLTSSVVIVFHNEGWSTLMRTVHSVIKRTPRKYLAEIVLIDDFSNKEHLKEKLDEYIKLWNGLVKVFRNERREGLIQARSIGAQKAKLGQVLIYLDAHCEVAVNWYAPLVAPISKDRTICTVPLIDVINGNTYEIIPQGGGDEDGYARGAWDWSMLWKRVPLTPQEKRLRKTKTEPYRSPAMAGGLFAIEREFFFELGLYDPGLQIWGGENFEISYKIWQCGGKLLFVPCSRVGHIYRLEGWQGNPPPIYVGSSPTLKNYVRVVEVWWDEYKDYFYASRPESQALPYGDISELKKFREDHNCKSFKWFMEEIAYDITSHYPLPPKNVDWGEIRGFETAYCIDSMGKTNGGFVELGPCHRMGGNQLFRINEANQLMQYDQCLTKGADGSKVMITHCNLNEFKEWQYFKNLHRFTHIPSGKCLDRSEVLHQVFISNCDSSKTTQKWEMNNIHSV [GALNT7]”: in series [1], the “solubility in G1/S (log2)” value was -0.206. The melting temperature in series [2] (cell cycle stage: G1/S) stood at 53.7 °C; in series [2] (cell cycle stage: mitosis), 53.8 °C. The “solubility change mitosis (log2)” value in series [3] is -0.135. Besides, the thermal stability score in series [4] (setting [5]) came out at 0.0877; in series [4] (cell cycle stage: mitosis), 0.865.
Regarding “MRLLPRLLLLLLLVFPATVLFRGGPRGLLAVAQDLTEDEETVEDSIIEDEDDEAEVEEDEPTDLVEDKEEEDVSGEPEASPSADTTILFVKGEDFPANNIVKFLVGFTNKGTEDFIVESLDASFRYPQDYQFYIQNFTALPLNTVVPPQRQATFEYSFIPAEPMGGRPFGLVINLNYKDLNGNVFQDAVFNQTVTVIEREDGLDGETIFMYMFLAGLGLLVIVGLHQLLESRKRKRPIQKVEMGTSSQNDVDMSWIPQETLNQINKASPRRLPRKRAQKRSVGSDE [SSR1]”, the “solubility in G1/S (log2)” value in series [1] is 0.474. The melting temperature in series [2] (cell cycle stage: G1/S) was determined as 57.4 °C; in series [2] (cell cycle stage: mitosis) it was 58.8 °C. Besides, in series [3], the “solubility change mitosis (log2)” value amounted to 0.0174. Besides, the values for the thermal stability score in series [4] (setting [5]) and in series [4] (cell cycle stage: mitosis) were 0.9 and 0.359, respectively.
